Test system: peptide library, one residue held at a place counted from the S/T acceptor
Test: relative phosphorylation of the sub-library (ratio to the mean residue at this position); higher = residue favoured
Conditions: human
How it was run: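 Purified recombinant kinases (human or orthologue constructs) were incubated in 384-well plates with biotinylated degenerate peptide sub-libraries, each fixing one residue at one position around a central Ser/Thr. Peptides were at 50 μM, with 50 μM ATP spiked with γ-32P-ATP, for 90 min under kinase-specific conditions. Spots on streptavidin membranes were phosphorimaged and quantified by densitometry. Relative sub-library phosphorylation is a ratio to the mean residue at that position.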

Sequence of GSK3A, construct: Full length (P49840 whole entry, looked up): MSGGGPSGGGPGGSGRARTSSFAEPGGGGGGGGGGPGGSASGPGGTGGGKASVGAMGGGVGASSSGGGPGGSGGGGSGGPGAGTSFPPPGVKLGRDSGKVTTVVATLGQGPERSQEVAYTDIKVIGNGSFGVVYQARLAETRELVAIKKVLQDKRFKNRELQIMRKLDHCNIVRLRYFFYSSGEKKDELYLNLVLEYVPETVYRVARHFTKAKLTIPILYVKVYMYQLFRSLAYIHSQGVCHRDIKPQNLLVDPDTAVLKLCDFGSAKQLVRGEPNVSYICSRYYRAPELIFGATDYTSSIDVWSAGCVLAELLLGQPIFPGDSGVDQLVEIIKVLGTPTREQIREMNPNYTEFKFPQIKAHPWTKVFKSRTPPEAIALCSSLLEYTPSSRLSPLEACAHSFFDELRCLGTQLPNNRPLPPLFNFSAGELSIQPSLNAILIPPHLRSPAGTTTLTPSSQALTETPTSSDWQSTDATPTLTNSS
Sequence of MAP3K19, construct: aa941-end (Q56UN5 941-1328, looked up): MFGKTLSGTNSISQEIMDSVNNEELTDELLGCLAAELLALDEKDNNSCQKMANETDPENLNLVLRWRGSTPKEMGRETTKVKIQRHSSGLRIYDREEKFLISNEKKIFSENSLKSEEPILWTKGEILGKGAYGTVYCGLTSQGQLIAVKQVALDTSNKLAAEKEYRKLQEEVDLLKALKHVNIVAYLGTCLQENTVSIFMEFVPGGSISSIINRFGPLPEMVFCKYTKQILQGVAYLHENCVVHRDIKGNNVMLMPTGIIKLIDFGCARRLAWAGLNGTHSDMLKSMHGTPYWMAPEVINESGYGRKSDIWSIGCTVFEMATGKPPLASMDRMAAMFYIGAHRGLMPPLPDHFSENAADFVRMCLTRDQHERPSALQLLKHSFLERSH
Sequence of ACVR2A, construct: aa162-end (P27037 162-513, looked up): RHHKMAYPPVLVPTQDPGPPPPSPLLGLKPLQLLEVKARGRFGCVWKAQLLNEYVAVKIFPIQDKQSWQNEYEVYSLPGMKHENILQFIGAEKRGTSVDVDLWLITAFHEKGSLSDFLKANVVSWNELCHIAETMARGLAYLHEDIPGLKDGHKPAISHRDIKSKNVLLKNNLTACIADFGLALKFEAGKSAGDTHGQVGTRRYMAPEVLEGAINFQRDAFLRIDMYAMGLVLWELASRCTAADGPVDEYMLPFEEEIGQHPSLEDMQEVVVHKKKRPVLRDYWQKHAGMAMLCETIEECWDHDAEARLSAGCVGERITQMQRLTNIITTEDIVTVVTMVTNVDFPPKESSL
Sequence of SMG1, construct: Full length (Q96Q15 whole entry, looked up): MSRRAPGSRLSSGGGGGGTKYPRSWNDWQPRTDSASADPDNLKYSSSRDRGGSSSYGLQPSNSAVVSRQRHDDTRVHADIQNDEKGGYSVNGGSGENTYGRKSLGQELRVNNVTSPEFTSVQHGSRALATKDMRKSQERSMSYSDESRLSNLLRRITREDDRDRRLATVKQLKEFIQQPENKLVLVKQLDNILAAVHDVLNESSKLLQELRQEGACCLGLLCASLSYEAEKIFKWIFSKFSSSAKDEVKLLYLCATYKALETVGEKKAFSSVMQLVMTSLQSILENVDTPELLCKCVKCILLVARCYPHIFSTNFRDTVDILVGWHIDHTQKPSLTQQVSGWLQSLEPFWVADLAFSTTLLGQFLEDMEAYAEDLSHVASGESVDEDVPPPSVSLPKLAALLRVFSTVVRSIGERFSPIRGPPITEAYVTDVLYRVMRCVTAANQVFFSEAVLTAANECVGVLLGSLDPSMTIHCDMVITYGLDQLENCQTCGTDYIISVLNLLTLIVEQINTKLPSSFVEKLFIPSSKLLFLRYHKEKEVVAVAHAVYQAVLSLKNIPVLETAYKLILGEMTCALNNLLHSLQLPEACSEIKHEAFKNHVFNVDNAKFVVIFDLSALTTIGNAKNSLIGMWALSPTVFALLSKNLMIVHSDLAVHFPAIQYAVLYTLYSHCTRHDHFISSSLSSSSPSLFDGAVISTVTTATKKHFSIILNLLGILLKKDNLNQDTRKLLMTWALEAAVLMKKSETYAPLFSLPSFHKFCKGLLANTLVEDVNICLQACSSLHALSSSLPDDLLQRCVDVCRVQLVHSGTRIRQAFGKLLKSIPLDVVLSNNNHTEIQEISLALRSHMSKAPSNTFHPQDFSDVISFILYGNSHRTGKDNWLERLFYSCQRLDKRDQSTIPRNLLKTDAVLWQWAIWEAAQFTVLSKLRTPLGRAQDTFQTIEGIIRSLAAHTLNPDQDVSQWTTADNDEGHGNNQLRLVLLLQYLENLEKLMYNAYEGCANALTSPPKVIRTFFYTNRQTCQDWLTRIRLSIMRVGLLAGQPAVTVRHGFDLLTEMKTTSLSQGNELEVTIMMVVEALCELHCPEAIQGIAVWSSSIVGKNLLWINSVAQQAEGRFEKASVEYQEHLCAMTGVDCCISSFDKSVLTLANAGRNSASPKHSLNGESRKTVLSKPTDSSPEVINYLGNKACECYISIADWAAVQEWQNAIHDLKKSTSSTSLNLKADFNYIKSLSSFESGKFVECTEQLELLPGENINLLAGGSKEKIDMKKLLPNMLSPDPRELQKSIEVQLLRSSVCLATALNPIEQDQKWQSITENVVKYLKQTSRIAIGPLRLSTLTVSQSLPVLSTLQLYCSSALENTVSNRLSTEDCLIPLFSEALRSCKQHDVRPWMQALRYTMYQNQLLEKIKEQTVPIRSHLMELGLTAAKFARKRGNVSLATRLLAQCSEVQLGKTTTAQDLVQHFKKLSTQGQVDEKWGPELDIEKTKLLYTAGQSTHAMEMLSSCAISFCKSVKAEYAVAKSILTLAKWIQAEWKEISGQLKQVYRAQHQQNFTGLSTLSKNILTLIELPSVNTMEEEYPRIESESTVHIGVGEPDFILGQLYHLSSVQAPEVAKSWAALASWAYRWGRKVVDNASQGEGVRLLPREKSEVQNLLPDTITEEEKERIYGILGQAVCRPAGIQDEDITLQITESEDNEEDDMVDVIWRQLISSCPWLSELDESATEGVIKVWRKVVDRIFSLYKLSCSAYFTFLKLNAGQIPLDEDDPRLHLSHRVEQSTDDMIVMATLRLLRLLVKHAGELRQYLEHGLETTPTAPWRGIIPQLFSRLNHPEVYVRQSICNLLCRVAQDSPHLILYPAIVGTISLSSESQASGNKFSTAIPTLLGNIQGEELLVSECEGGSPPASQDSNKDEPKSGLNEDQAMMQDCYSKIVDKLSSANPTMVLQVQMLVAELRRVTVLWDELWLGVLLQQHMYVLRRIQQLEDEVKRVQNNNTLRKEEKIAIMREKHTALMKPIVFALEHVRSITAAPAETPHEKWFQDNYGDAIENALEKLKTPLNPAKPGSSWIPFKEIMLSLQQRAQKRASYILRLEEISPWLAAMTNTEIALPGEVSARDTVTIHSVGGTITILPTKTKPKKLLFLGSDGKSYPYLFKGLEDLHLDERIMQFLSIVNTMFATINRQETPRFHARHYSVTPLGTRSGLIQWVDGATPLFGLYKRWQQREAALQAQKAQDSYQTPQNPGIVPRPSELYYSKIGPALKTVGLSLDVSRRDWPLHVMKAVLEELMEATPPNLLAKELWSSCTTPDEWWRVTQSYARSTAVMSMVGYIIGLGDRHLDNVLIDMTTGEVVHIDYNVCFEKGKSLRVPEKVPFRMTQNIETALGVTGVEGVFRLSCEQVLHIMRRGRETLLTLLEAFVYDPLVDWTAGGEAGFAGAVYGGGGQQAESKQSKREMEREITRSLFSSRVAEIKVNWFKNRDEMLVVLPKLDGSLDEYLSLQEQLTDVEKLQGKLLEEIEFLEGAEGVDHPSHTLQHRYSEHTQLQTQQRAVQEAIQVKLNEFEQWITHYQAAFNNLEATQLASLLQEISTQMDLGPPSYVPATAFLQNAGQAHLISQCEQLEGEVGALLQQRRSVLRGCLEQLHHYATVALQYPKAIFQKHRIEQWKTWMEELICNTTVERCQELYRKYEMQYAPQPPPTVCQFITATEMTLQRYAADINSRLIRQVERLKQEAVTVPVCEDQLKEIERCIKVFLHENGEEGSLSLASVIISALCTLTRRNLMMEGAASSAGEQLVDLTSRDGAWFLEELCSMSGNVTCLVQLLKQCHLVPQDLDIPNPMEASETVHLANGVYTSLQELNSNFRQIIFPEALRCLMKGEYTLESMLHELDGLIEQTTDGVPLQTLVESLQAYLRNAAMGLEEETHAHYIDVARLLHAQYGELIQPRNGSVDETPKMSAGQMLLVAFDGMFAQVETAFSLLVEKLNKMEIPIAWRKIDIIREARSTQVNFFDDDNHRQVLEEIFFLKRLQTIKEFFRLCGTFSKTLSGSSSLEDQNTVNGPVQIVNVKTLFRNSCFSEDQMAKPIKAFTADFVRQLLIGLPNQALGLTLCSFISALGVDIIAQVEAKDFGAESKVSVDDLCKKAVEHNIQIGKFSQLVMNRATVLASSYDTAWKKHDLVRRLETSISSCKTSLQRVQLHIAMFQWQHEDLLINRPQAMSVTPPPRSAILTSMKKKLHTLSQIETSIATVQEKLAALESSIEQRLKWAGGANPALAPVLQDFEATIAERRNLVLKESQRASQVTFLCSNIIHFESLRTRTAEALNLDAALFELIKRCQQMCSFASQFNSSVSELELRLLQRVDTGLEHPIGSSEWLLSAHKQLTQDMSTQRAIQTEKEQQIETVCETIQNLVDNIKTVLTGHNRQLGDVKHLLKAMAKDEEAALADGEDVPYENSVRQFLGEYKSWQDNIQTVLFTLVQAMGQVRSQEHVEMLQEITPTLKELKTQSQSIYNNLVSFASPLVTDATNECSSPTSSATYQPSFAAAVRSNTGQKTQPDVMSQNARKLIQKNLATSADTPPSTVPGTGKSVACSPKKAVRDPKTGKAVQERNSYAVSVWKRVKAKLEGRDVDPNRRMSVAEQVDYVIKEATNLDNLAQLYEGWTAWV

GSK3A, construct: Full length (from UniProt P49840)
relative phosphorylation
Conditions	at +1	at +2	at +3	at +4	at -1	at -2	at -3	at -4	at -5
A fixed	0.877	0.899	0.742	0.852	1.1	1.42	1.14	1.28	1.14
D fixed	0.815	1.25	1.32	1.25	1.15	1.14	1.36	1.39	1.36
E fixed	0.758	0.904	2.08	3.03	1.09	0.906	1.26	1.4	1.05
F fixed	0.673	0.931	0.889	0.752	0.598	0.686	0.525	0.686	0.903
G fixed	1.19	0.957	1.02	0.825	1.47	1.38	2.61	1.43	0.995
H fixed	0.771	1.04	0.935	0.772	0.927	0.741	0.668	0.915	0.983
I fixed	0.564	0.621	0.679	0.788	0.506	0.719	0.507	0.661	0.727
K fixed	1.18	1.33	0.933	1.14	1.3	1.02	0.824	1.06	1.16
L fixed	0.552	0.772	0.803	0.862	0.61	0.638	0.536	0.715	0.811
M fixed	0.607	0.883	0.812	0.864	0.691	0.662	0.604	0.747	0.739
N fixed	1.05	1.38	1	0.922	1.28	1.25	1.21	1.13	0.974
P fixed	3.8	0.825	0.899	0.728	1.5	2.02	1.65	1.42	1.31
Q fixed	0.858	1.35	1.2	1.03	1.35	1	1.09	0.894	0.887
R fixed	1.15	1.03	1.01	0.82	1.31	1.26	1.21	0.951	1.01
V fixed	0.634	0.703	0.718	0.695	0.616	0.777	0.605	0.721	0.963
W fixed	0.793	1.15	1.07	0.766	0.724	0.728	0.592	0.828	1.1
Y fixed	0.725	0.979	0.873	0.908	0.77	0.653	0.614	0.772	0.882
pThr fixed	0.876	0.928	3.67	62.8	0.866	1.11	1.06	1.82	1.07
pTyr fixed	1.15	1.09	2.41	3.12	1.52	1.34	1.37	1.45	1.69

MAP3K19, construct: aa941-end (from UniProt Q56UN5)
relative phosphorylation
Conditions	at +1	at +2	at +3	at +4	at -1	at -2	at -3	at -4	at -5
A fixed	0.458	0.666	0.903	0.975	0.853	1.02	0.971	1.05	1.27
D fixed	0.354	0.662	0.8	0.995	1.51	1.22	1.46	1.14	1.18
E fixed	0.386	0.508	0.765	0.822	0.913	0.851	1.03	1.1	0.864
F fixed	1.33	0.605	0.974	0.784	0.832	1.67	0.921	1.04	1.08
G fixed	0.531	0.809	1.15	1.23	0.867	0.977	1.16	1.16	1.24
H fixed	0.999	1.35	1.1	1.12	1.25	1.34	1.08	1.06	1.13
I fixed	1.7	0.677	0.741	0.801	0.586	0.558	0.65	0.701	0.679
K fixed	0.396	2.23	1.32	1.38	1	0.363	0.877	0.834	0.892
L fixed	2.2	0.55	0.818	0.817	1.13	0.506	0.725	0.883	0.736
M fixed	1.56	0.625	0.803	0.863	1.03	0.821	0.95	0.969	0.87
N fixed	0.52	1.43	1.22	1.05	1.25	1.08	1.39	1.1	1.05
P fixed	0.202	0.646	1.27	1.34	1.08	0.687	0.953	1.06	1.01
Q fixed	0.485	0.932	0.986	1.26	0.941	0.856	1.04	0.936	0.818
R fixed	0.433	3	1.18	1.05	0.914	0.484	0.923	0.888	1.02
V fixed	1.17	0.883	0.919	0.756	0.615	0.599	0.606	0.81	0.879
W fixed	2.7	0.673	1.06	0.916	0.841	1.79	1.21	1.21	1.28
Y fixed	1.57	0.755	0.982	0.838	1.38	2.18	1.05	1.05	1.02
pThr fixed	0.786	1.14	1.09	1.08	0.755	0.741	1.09	1.13	1.19
pTyr fixed	0.541	0.47	0.675	0.662	1.35	0.832	1.09	0.908	0.807

SMG1, construct: Full length (from UniProt Q96Q15)
relative phosphorylation
Conditions	at +1	at +2	at +3	at +4	at -1	at -2	at -3	at -4	at -5
A fixed	0.603	0.979	1.02	0.957	0.855	1.26	1.21	1.23	1.18
D fixed	0.453	1.12	1.33	0.91	0.348	0.521	0.669	0.674	0.649
E fixed	0.336	0.964	1.15	0.799	0.298	0.645	0.836	0.829	0.693
F fixed	0.533	0.966	1.12	1.28	1.35	1.25	1.44	1.3	1.39
G fixed	0.603	0.924	0.974	0.933	0.646	1.29	1.03	1.26	1.28
H fixed	0.522	0.991	0.858	1.06	0.939	1.04	0.972	1.02	1.07
I fixed	0.539	0.841	0.899	0.883	0.662	1.08	0.874	0.926	0.924
K fixed	0.581	0.711	0.62	0.779	0.725	0.698	0.604	0.614	0.67
L fixed	0.739	0.889	0.853	0.943	4.37	1.2	0.965	1.01	0.958
M fixed	0.55	1.03	1.07	1	2.27	1.26	1.33	1.08	1.03
N fixed	0.841	0.832	0.854	0.806	0.722	0.82	0.766	0.73	0.701
P fixed	0.567	1.39	0.996	1.12	0.558	0.807	0.817	0.855	1
Q fixed	7.53	1.13	0.832	0.867	0.822	0.877	0.83	0.766	0.729
R fixed	0.875	0.818	0.931	0.85	0.615	0.751	0.687	0.677	0.781
V fixed	0.567	0.946	0.913	0.881	0.474	0.996	0.912	0.93	0.964
W fixed	0.545	1.26	1.31	1.53	0.53	1.08	1.36	1.55	1.6
Y fixed	0.613	1.2	1.28	1.39	0.823	1.42	1.7	1.55	1.38
pThr fixed	0.386	1.04	1.82	1.03	0.365	0.661	0.999	1.11	1.1
pTyr fixed	0.416	0.704	1.06	1.41	0.539	1.27	1.71	1.65	1.47

ACVR2A, construct: aa162-end (from UniProt P27037)
relative phosphorylation
Conditions	at +1	at +2	at +3	at +4	at -1	at -2	at -3	at -4	at -5
A fixed	0.647	1.12	0.899	0.847	0.822	0.53	0.912	0.943	0.992
D fixed	1.68	1.24	1.06	1.09	1.23	4.3	1.79	1.77	1.51
E fixed	3.21	1.03	1.48	1.09	1.29	5.23	2.05	1.48	1.34
F fixed	0.932	0.983	1.09	0.89	1.17	0.504	0.877	1.05	1.02
G fixed	0.575	1.36	1.01	0.924	0.57	0.5	1.11	0.933	0.818
H fixed	0.7	1.12	1	0.974	1.07	0.487	0.9	0.937	0.969
I fixed	1.18	0.915	0.942	0.957	0.804	0.454	0.855	0.895	1.06
K fixed	0.327	0.805	0.785	0.896	0.532	0.354	0.603	0.69	0.868
L fixed	0.873	0.674	1.04	0.87	1.27	0.431	0.814	0.884	1.01
M fixed	0.996	0.879	1	1.13	1.44	0.399	0.875	0.98	0.886
N fixed	0.638	0.863	0.891	0.946	0.816	0.676	0.854	0.852	0.911
P fixed	0.34	0.989	1.14	1.29	0.676	0.321	0.854	0.791	0.706
Q fixed	1.23	1	0.848	1.05	0.9	0.769	0.863	0.82	0.732
R fixed	0.416	0.935	0.658	0.835	0.577	0.504	0.783	0.777	0.808
V fixed	1.32	0.999	0.963	0.877	1.1	0.502	0.928	0.924	1.02
W fixed	0.961	0.983	1.08	1.36	1.39	0.54	1	1.28	1.37
Y fixed	0.971	1.11	1.11	0.985	1.33	0.498	0.935	0.996	0.982
pThr fixed	4.65	1.1	0.882	1.2	1.37	1.01	2.05	1.37	1.33
pTyr fixed	2.81	0.877	1.39	1	1.81	0.721	1.66	1.16	1.29
